The source of these data is a protein production outcome set (Wang et al. 2014).

A short description of this series: label from the status in PepcDB records.
As to “MSSKIDALKITVLSLSLCFSVSSLSATVNKTVKQKKNVIYILTDDQRYDEVGFLNPRIDTPNMDKLAAGGVYFKNAFVTTALCSPSRATILTGQYMHNHGVVDNNNPAKESSVYFPSYLQEVGYETSFFGKWHMGGHGDSPQPGFDHWLSFAGQGHYYPKKDKKGRTNKININGERVDQKGYITDELTDYAVDWLDKRDSDKPFFMYLSHKAVHSNFDPAPRHKDQYSDVAIEVPESQADTPENYAGKPMWVKNQRNSWHGVDFPYHSEMDVQEYKRQYHRALSAVDDSLGRVLKWLKDNNLENDTIVMLMGDNGFMFGEHGLIDKRNAYEESMRVPLLAYAPGYFKPGTVVDEMVANLDIAPTILEIAGAKKPAHFDGDSWLPLAKNKEVNQWRENFLYEYYWEFNYPSTPTTFALRTDNYKLIQYHGVWDTEELYDLKNDPKEMNNLINTPKHQPLIAQMRHDLFNLLVNKKGDNVIPYTEKYTPGAVYRERDRGETADFPDNWLKKEGDDGLRTFLRIKPIKDKKDDKKKSAKH”, the protein production result is “failed”. As for “MKVLKFGGTSVGDAERIRSVARLITSVKGRKIIVLSAMAGTTNSLVEIASHLVKRNVAQAKEVVQVLREKYHREINALYKRPDTLSAAKKAVDSLLDSLGHMCDVEGFTLFEEKRVLIL”, the entry is “failed”; as for “MADHSLQRRLAAIVVADVVGYSRLMEADEAATLANLRELRSGVIEPAVMRHHGRIFKVMGDGFLIEFGSAVEAVAAALEMQRAATAVEASGDRRLLLRVGVNLGDVIDDGSDVLGDDVNVAARLQTQAAPGGICISANVHGEIDGKISDRFFDAGERYLKNLTRPVHVWHWPDALQSILPLPECPSIAVLPFTNMSGDEADAPFVDGLTEDLITDLSRTAGLFVIARNSVYVYKGKPVDVRLVAQELGVRYVLEGSARRAMGRVRINAQLVDTLAGQHLWADRFDRTVEDVFELQDEVNAKIVEALVGRLTIPTPRNRPKNFEAYDLCVRARLLTEESPQTEREAYMLLQRAVELEPSYAEALGLLAYNRWLAWTHFGEPEDPNRRMAATFAQKAVDLDPNDAGCRYVLGTILAYERRWEESEAAFAKALELDPNHADTWAAMSDMSVLDGRVADGLAQIEKALRLNPYPACWYLCHLGQAQYAARDYEAAAATLRRKDTYRTNSRKFLAATLAQLGHREEARRESELFLIAHPHFTIGHWLSSQPLRDASVRDHFVDGFRKAGLPEM”, “failed”; as for “RRCQVHLLDDRKLELLVQPKLLAKELLDLVASHFNLKEKEYFGIAFTDETGHLNWLQLDRRVLEHDFPKKSGPVVLYFCVR”, “failed”. As for “RQLVSGRLEVAADGPHLVMPMLARLRASYPGITVNLRLGNAQETLAALLSEHVDVAVLTEVEARPGLFLEELVNSRICALLPRQHPWCERNEGVPLEELDQQIMVLREPGSITRRTFDRACAEQGVQPRVLLELDSREAVT”, the entry is “failed”; as for “MGSRDLISSLPDEILGKVLSLLPTKRAASTAVLSKRWNNLPALVDKLDINDAIGGPGGFPEFIDKTLALLTNSTTIKRTSLNNEFQYGESQVNTWIRSFLERGCLQLYLNAQSLYTIDTEFFTSNTLVELTITGGFSPDGLLPPGGVFFPKLKTLSLVLMTFVDSDMYELFISGCPLLEEFLLRNDEIEIPPVWNALVSSPSIKRLTIVHHFPNYREAHDGCWFRTPNLVYLDYSSYVPDWYEVDLGSLVEARLDLRSWERLRDEKAGGYGDCDSVYDDEEYPDDPILGDVTNLVTGLSNIKTLHLSPDSLEVSFPYLLLFQFEVHSSLQSLLIV”, “failed”.

As to “MKNYMKLIFGLGLIALVGYWPAAKTPKRVNSLFLQNVEALAGSEHVTNLGCLGDGSVDCPINHIKVEYVVQGFSLGE”, the protein production result was “failed”.

Consider “VHVEDALTYLDQVKIRFGSDPATYNGFLEIMKEFKSQSIDTPGVIRRVSQLFHEHPDLIVGFNAFLP”, for which the protein production result is “not failed”.

As to “MARPNFRYTHYDLKELRAGTTLEISLSSVNNVRLMTGANFQRFTELLDFKYLGGVAKKSPIRIAVPETMHWHLIIDAEGHSGLAESSVKMLPAQPQATLTRKAS”, the protein production entry is “not failed”. As for “MEENTAVAAAERRSGCGLLSVMFGRRGLWSKKSTAVDNGSQKSTSTAATATSNIQFTKSPGTELKKPRDDQKVSAEPIQNNKIQNNQNHNQRSVVPSKPSSNQYPNNHQLGTYENHQRSSYNNNSNSVDPYRGGGGQRKVPREAIGLSGELESMITDHQKAKGTNGLVRASSSNIMLYGNLGNLNQTGPVTAGVNYGNNNGYGVKRTTMGAATATTTKSQDQSGSLCRAISTRMDPETLKIMGNEDYKNGNFAEALALYDAAIAIDPNKAAYRSNKSAALTALGRILDAVFECREAIRIEPHYHRAHHRLGNLYLRLGEVEKSIYHFKHSGPEADREDIAKAKTVQTHLNKCTEAKRLRDWNGLITETTNTISSGADAAPQVYALQAEALLKTHRHQEADDALSRCPVFDIDASTRYYGPVGYAGFLVVRAQVHLASGRFDEAVEAIQRAGKLDGNNREVIMISRRAQAVTEARFKGNELFKSGRFQEACAAYGEGLDHDPRNSVLLCNRAACRSKLGQFDKSIEDCTAALSVRPGYGKARLRRADCNAKIEKWELAVGDYEILKKESPEDEQVIRGLSEAQQQLMKRSGQDS”, the entry is “failed”; as for “MGERIIPKNMKPMNGMLLEHLARYYFSTPYASGRVLDIACGTGYGSVMVAKTRKTEVDQVLGVDFDADVIHYAKQNYYHPKVSFLVGDAMDPYLRNQIGTFDTILSFETIEHVKDDRLFIERMRQLLKKDGTLVLSTPFGQGRGKPSDEPFHYHQLTEEEFRSLFDSFSEKEVFYQRGVTIEPKRTNVHYAFGVAVCKLEHHHHHH”, “failed”; as for “MDFRALALSLLLWLVPLWACANDQLDKLTQQVYQYPTKALAQITELEKQQQTDNTSNIDKLRLSILKCQNLLQLGENEAAINLAQMGEAHAKQLKLDQARPYFFNCQADAYLNYDNIQDALPLLDSAITLARRYQQPQALIDALRLRGQLDTNTDNFSSAIEDLRIAIDIYPDIHTQTQNWIWPPEAVGSPHNS”, “failed”. As for “MSTTYYWLCLLASIVFEVAGTSVMKLSQETWPLLGMGCMYLLLGLSYFFLARAVVKLPVGVAYAFWEGLGLTLITIVSVTLLDERLDAMRLAALGMVLAGTLLVHHGTAHGRDDEEAEAASGGEGRI”, the entry is “failed”; as for “MGEVWTWIISFLILITLLGLIVYQLISLADLEFDYINPYDSASRINFVVLPESILQGFLCVFYLVTGHWFMALLCVPYLYYNFHLYSRKQHLIDVTEIFNLLDWEKKKRLFKLAYIILTLFLTIFWLIYSTLDDYED”, “failed”; as for “MSNVRIRQATTDDLIGIFEAHRNSVERLCTSEYSDQQIRMWLDGRSPETYREAVEKGSLWLAEGEQIEGFVELDGNEVSKLFIRGDVARRGLGSRLLEVALARLRASGASSAYLEATLTAEGFYAYHGFQKIGEGTFSRGNSPVSIEIIKMERPL”, “failed”. Then “MAFNHLPAGVHDALGPLSVMPVTHSLPMAKNHRPDRSSSDTASSPSPGTVLDRLASGPSRASRITHTEHLPPREGRHAVWPDRIRSEVIAAVQAAGIEHPWAHQARAAEHALDGESVVVATGTASGKSLAYLVPALSALLDGSEAPNGRGATALYLAPTKALAADQCRSVKELSQPLGTAVRPAVYDGDTPVEEREWVRQYANYVLTNPDMLHRGILPAHPRWSSFLRALRYVVIDECHTYRGVFGSHVAQVLRRLRRLCARYGASPVFLLASATAAEPSVAASRLTGLRVVEVADDASPRGELVFALWEPPLTELHGEKGAPVRRTATAETADLLTDLTLQGVRSVAFVRSRRGAELIAVIAQERLAEIDRSLARRVAAYRGGYLPEERRALERALHSGELLGLAATTALELGVDVSGLDAVVIAGYPGTRASLWQQAGRAGRSGQGALAILVARDDPLDTFLVHHPEALFDQPVESTVLDPDNPYVLAPHLCAAAEELPLVEEDLALFGPSTADLLPQLEAAKLLRRRTKAWHWTRRERAADLTDIRGEGGRPVQIVEAGTGRLLGTVDAGAAHTTVHEGAVHLHQGRTYLVRELDLEDSVALVEEANPSYSTVARDTTAISVLETDVEVPWGEGRLCYGSVEVTNQVVSFLRRRLITGEVLGETKLDLPPRTLRTRAVWWTVTEDQLDAARITPEILGGALHAAEHASIGMLPLFATCDRWDIGGVSVPLHPDTLLPTVFVYDGHPGGAGFAERAFHTARDWLTATRQAIASCECDAGCPSCIQSPKCGNGNDPLHKRGAVRLLSVLLRGAAEQEKAGLPKEPARAAESSAD”, with “failed”; and “GQLDLLRSNTGLLYRIKDSQNAGKMKGSDNQEKLVYQIIEDAGNKGIWSRDVRYKSNLPLTEINKILKNLESKKLIKAVKSV”, with “not failed”.

Regarding “MEKVVTLNHDLPLLHFPNSRKPFSIPSPILRISSFKRHKKRSCLASSSRLGFYTETKTVSESHGVIVDNSTIGRRLLGLAAAVSVAVSLSIFCDSPALAESLTIAFPVSRAREVIETMVEMFPLRSADAAYGKLKAMLSTLGDPFTRLITPKEYQSFRIGSDGNLQGVGLFINSEPRTGHLVSDQTHLETQISLVFGLFVHFLSMNPADRAGIHEGEELVEINGEKLDDVDSEAAAQKLRGRVGTFVTIKLKNVLFGTDSGIREVTVTAVSVRCVKLPRDYIKLSPISSAIIPHTTPDGRLAKTGYVKLTAFSQTAASDMENAVHEMENQDVQSYILDLRNNPLLAIPYQGGLVRAGLDVAQLWLDGDETLVYTIDREGVTSPINMINGHAVTHDPLVVLVNEGSASASEILAGALHDNGRAILVGNRTFGKGKIQSITELNDGSALFVTVAKYLSPSLHEIDQVGIAPDVQCTTGMIDSLTAEIVEKMNSSVPLLEADSCVMVAEHELEARRSNGTAS”, the protein production result was “failed”. Then “MVKELIEQGANVTGLVRDHVPQSNLYQGEHIKKMNIVRGSLEDLAVIERALGEYEIDTVFHLAAQAIVGVANRNPISTFEANILGTWNILEACRKHPLIKRVIVASSDKAYGDQENLPYDENMPLQGKHPYDVSKSCADLISHTYFHTYGLPVCITRCGNLYGGGDLNFNRIIPQTIQLVLNGEAPEIRSDGTFVRDYFYIEDAVQAYLLLAEKMEENNLAGEAFNFSNEIQLTVLELVEKILKKMNSNLKPKVLNQGSNEIKHQYLSAEKARKLLNWTPAYTIDEGLEKTIEWYTEFFKK”, with “failed”; and “MSSTILVLGATGTVGRHVVDGLLAKGEAVKAASRAGKPVAAAEGVAFDYARPETFGPALEGVDRAYVLLASGYVDSKGLLLPVIEAAATRKVKVVLQSVIGVDADDSIPYRQVEIALEKSDTPYVILRPNWFSDNFHTFWKPGIDHGQIALPAAEGKSSFIDARDIAASGVAVLTSSSFDGKAFNLTGPEALSYAEAAAILSEAIGKPVTYNAVSDEAFIEMLTGAGVPAGYASFLASIFYPVRQNWTAVMTGDVETLTGKAPRSLKTYAADYAAALKA”, with “failed”. Consider “MASYAELFDIGEDFAAFVGHGLATEQGAVARFRQKLESNGLPSALTERLQRIERRYRLLVAGEMWCPDCQINLAALDFAQRLQPNIELAIISKGRAEDDLRQRLALERIAIPLVLVLDEEFNLLGRFVERPQAVLDGGPQALAAYKAGDYLEHAIGDVLAIIEGAAR”, for which the protein production entry is given as “not failed”. In the case of “MVDFIRRIQISCVVSLTDSRHQRRTKSHHHPLNPPNPVAESRKRSKGKQKEKVNNMVLFDQATYDKLMSEAPKFKLITPSILSDRLRINGSLARKAIRDLMVKGTIRMVSTHSSQQINTRATCLT”, the protein production result was “failed”. As for “MGHHHHHHSHMSTSLTGKPGALPANLDDMKVAELKQELKLRSLPVSGTKTELIERLRAYQDQISPVPGAPKAPAA”, the entry is “failed”. As for “MTAVQLMELDSCTRCGECVKWCPTYAASGQKPGLAPRDKILRWRQYMNKSYGLKAKLFGPTEIPQSELEEFKDDVHGCTTCGICATVCESGINTVELWESLRTNLVKKGIGPFGKQGMFPKLEHHHHHH”, the entry is “failed”.
